Laboratory results published in the nanobody polyreactivity screen of Harvey et al. (2022).

Assay: yeast display, Sf9 membrane polyspecificity reagent, FACS + sequencing; frameworks hold sequencing errors
Method in brief: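 Polyreactivity labels are assigned by the sorting gate from which each nanobody was recovered. The gates were low and high (top ~1%), set on anti-HA fluorescence for expression and streptavidin fluorescence for reagent binding. Before sorting, galactose-induced (36–48 hours) yeast display cells were stained for 1 hour at 4 °C with 10% biotinylated, detergent-solubilized Sf9 membrane reagent.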

Sequence | polyreactivity (PSR sort gate)
QVQLVESGGGLVQAGGSLRLSCAASGFTFYRYTMGCYRQAPGKERELVAAISSGDSTYYADSVKGRFTISRDNAKNTVYLQMNSLKPEDTAVYYCAARQYSRGAIVYYWGQGTQVTVSS | high polyreactivity
QVQIVESGGGLVQAGGSLRLSCAASGRSYAINAMGSYRQAPGKERELDASITTRDSSTYYADSVKGRFTISRDNAKNTVYLHMNSLKPEDTAVYYCAKVKLVTYLYRLFVYGSYYWGQGTLVTVSS | low polyreactivity
QVQLVESGGGLVQAGGSLRLSCADSGSIGLYAMGWYRQAPGKETELVAVISRNGGSTYYADSVKGRFTISRDNAKNTVYLQMNSLKPEDTAVYYCAKRRLERGTGDYWGQGTQVTVSS | high polyreactivity
QVQLVESGGGLVQAGGSLRLSCAASGSIFRKNAMGWYRQAPGKERELVAAITCTGRTTYADSVKGRFTISRDNAKNTVYLQMNSLKPEDTAVYYCAADVNYYQHRLYYWGQGTQVTVSS | low polyreactivity
QVQLVESGGGLVQAGGSLRLSCAASGSTFLVYAMGWYRQAPGKERELVAAIRGGGSTNYADSVKGRFTISRDNAKNTVYLQMNSLKPEDTAVYYCNADIVLSWFGSGFDYWGQGTQVTVSS | low polyreactivity
QVQLVESVGGLVQAGGSLRLSCAASGSTFYTYDMGWYRQAPGKERELVAAISRRDGITYYADSVKGRFTISRDNAKNTVYLQMNILKPEYTAVYYCAAEDAYLYYDFDYWGQGTQVTVSS | low polyreactivity
QVQLVESAGGLVQAGGSLRLSCAASGSTIYPNAMGWYRQAPGKERELVAVISSGGSTYYADSVKGRFTISRDNAKNTVYLQMNSLKPEDTAVYYCADERYYFPRSYRYGYWGQGTQVTVSS | low polyreactivity
QVQLVESGGGLVQAGGSLRLSCAASGRIYAMGWYRQAPGKERELVAAISRGGSTYYADSVKGRFTISRDNAKNTVYLQMNSLKPEDTAVYYCARRYASTGYDYWGQGTQVTVSS | high polyreactivity
QVQLVESGGGLVQAGGSLRLSCAASGIIFWYNAMGWYRQAPGKERELVAAITYSGGSTYYADSVKGRFTISRDNAKNTVYLQMNSLKPEDTAVYYCAADGYSRYASGGYEYWGQGTQVTVSS | low polyreactivity
QVQLVESGGGLVQAGGSLRLSCAASRFTFTAYAMGWYRQAPGKERELVAAITGTGGSTKYADSVKGRFTISRDNAKNSVDLQMYSLKPEDTAVYYCAAIRFTLRRMDYWGHGTQVTVSS | high polyreactivity
QVQLVESGGGLVQAGGSLRLSSAASGSIFASYAMGWYRQAPGKERELVAAISRRAVRTYYADSVKGRFTISRDNAKNTVYLQMNSLKPEDSAVYYCNAASSLPGYDYWGQGTQLTVSS | high polyreactivity
QVQLVESGGGLVQAGGSLRLSCAASGITFSLYAMGWYRQAPGKERELVAAITRSGGSTYYADSVKGRFTISRDNAKNTVYLQMNSLKPEDTAVYYCAALRPGVRRYYYWGHGTQVTVSS | high polyreactivity
QVQLVESGGCLVQAGGSLRLSCAASGRTFLANAMGWYRQAPGKERELVAAITWSGGRTNYADSVKGRFTISRDNAKNTVYLQMNSLKPEDTAVYYCAADIFYEQVVGGTDVGYHDFDYWGQGTQVTVSS | low polyreactivity
QVQLVESGGGLVQAGGSLRLSCAASGRTFISYAMGWYRQAPGKERELVAAISWSGGRTSYADSVKGRFTISRDNAKNTVYLHMNSLKPEDTAVYYCNAQYNSWFAIKDYDYWGQGTQVTVSS | low polyreactivity
QVQLVESGGVLVQAGGSLRLSCAASGRIFHYYAMGWYRQAPGKETELVAANSSRRGSTYYADSVKGRFTISRDNAKNNFYLQMNILKAYDTAVYYCNARGWGYWVRFDYWGQGTQVTVSS | high polyreactivity
QVQLVESGGGLVQAGGSLRLSCAASGITLYRYTMGWDRQAPGTEREFVAAISRSGGSTYYADSVKGRFTISRDNEKNTVYVQMNSLKPEDTAVYYCAARWYEKTTRPYGSWGQGTQVTVSS | high polyreactivity
QVQLVESGGGLVQAGGSLRLSCAASGRTFVKYAMGWYRQAPGKERELVAAISWSGGSTYYADSVKGRFTISRDKAKNTVYLQMNSLKPEDTAVYYCAAPSSRGQGRNFDYWGQGTQVTVSS | high polyreactivity
